Legend:
[1] = target: human C-domain ACE (tACEΔ36-g13sol) R522Q (human)
[2] = target: human C-domain ACE (tACEΔ36-g13sol) R522K (human)
[3] = target: human C-domain ACE (tACEΔ36-g13sol) R186H (human)
[4] = target: human tACEΔ36-g13sol (C-domain of angiotensin-I-converting enzyme) (human)

B1: Angiotensin I (Asp-Arg-Val-Tyr-Ile-His-Pro-Phe-His-Leu) (peptide)
peptide: DRVYIHPFHL
- Km of angiotensin I cleavage, ITC kinetic assay (progress curve), 37 °C, 0 mM NaCl, 50 mM TAPSO pH 7.5, 10 μM ZnSO4 [1]: 0.092 mM
- Km of angiotensin I cleavage, ITC kinetic assay (progress curve), 37 °C, 20 mM NaCl, 50 mM TAPSO pH 7.5, 10 μM ZnSO4 [1]: 0.077 mM
- Km of angiotensin I cleavage, ITC kinetic assay (progress curve), 37 °C, 0 mM NaCl, 50 mM TAPSO pH 7.5, 10 μM ZnSO4 [2]: 0.13 mM
- Km of angiotensin I cleavage, ITC kinetic assay (progress curve), 37 °C, 20 mM NaCl, 50 mM TAPSO pH 7.5, 10 μM ZnSO4 [2]: 0.119 mM
- Km of angiotensin I cleavage, ITC kinetic assay (progress curve), 37 °C, 0 mM NaCl, 50 mM TAPSO pH 7.5, 10 μM ZnSO4 [3]: 0.085 mM
- Km of angiotensin I cleavage, ITC kinetic assay (progress curve), 37 °C, 20 mM NaCl, 50 mM TAPSO pH 7.5, 10 μM ZnSO4 [3]: 0.095 mM
- Km of angiotensin I cleavage, ITC kinetic assay (progress curve), 37 °C, 0 mM NaCl, 50 mM TAPSO pH 7.5, 10 μM ZnSO4 [4]: 0.049 mM
- Km of angiotensin I cleavage, ITC kinetic assay (progress curve), 37 °C, 20 mM NaCl, 50 mM TAPSO pH 7.5, 10 μM ZnSO4 [4]: 0.036 mM
